Source: article PMC11951046

Columns and labels:
[1] = molecular target: Cyt2Aa2 protoxin (Bacillus thuringiensis subsp. darmstadiensis); assay: SDS-PAGE of unheated sample with immunodetection
[2] = molecular target: activated Cyt2Aa2 protein (chymotrypsin-activated) (Bacillus thuringiensis subsp. darmstadiensis); assay: SDS-PAGE ladder pattern of unheated sample with immunodetection

Row | Substance | stoichiometry N [1] | stoichiometry N [2]
1 | Cyt2Aa2 protoxin (natural protein) | 2 | 
2 | activated Cyt2Aa2 protein (chymotrypsin-activated) (natural protein) |  | > 10
